Reference: article PMC8927995

Target: PspR, DTG rhodopsin from Pseudomonas putida (Pseudomonas putida)
Test: crystal structure

PspR, DTG rhodopsin from Pseudomonas putida (natural protein)
stoichiometry N: 3
